# According to IntAct's records for PubMed 31515488:
# B1: Modulator of apoptosis 1 (Homo sapiens), Q96BY2 (parent)
# chain: MTLRLLEDWCRGMDMNPRKALLIAGISQSCSVAEIEEALQAGLAPLGEYRLLGRMFRRDENRKVALVGLTAETSHALVPKEIPGKGGIWRVIFKPPDPDNTFLSRLNEFLAGEGMTVGELSRALGHENGSLDPEQGMIPEMWAPMLAQALEALQPALQCLKYKKLRVFSGRESPEPGEEEFGRWMFHTTQMIKAWQVPDVEKRRRLLESLRGPALDVIRVLKINNPLITVDECLQALEEVFGVTDNPRELQVKYLTTYQKDEEKLSAYVLRLEPLLQKLVQRGAIERDAVNQARLDQVIAGAVHKTIRRELNLPEDGPAPGFLQLLVLIKDYEAAEEEEALLQAILEGNFT
# partner: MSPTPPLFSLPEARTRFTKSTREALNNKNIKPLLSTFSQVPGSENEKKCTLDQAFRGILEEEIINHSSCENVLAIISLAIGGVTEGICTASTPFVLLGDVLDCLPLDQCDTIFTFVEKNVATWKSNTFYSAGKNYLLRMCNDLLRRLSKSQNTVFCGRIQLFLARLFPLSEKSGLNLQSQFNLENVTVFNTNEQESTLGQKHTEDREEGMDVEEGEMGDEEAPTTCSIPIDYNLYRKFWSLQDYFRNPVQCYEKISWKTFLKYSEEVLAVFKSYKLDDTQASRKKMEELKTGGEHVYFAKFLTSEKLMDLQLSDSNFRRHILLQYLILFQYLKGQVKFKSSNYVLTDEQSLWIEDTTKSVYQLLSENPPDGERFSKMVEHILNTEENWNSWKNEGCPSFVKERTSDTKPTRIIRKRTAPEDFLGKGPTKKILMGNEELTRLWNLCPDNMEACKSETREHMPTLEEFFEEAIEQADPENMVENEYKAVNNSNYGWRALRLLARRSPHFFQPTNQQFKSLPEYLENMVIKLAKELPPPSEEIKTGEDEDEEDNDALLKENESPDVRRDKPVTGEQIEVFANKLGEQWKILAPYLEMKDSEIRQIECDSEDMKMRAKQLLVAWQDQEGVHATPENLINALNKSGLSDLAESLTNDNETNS
# B2: Calcium-binding and coiled-coil domain-containing protein 2 (Homo sapiens), Q13137 (parent)
# chain: MEETIKDPPTSAVLLDHCHFSQVIFNSVEKFYIPGGDVTCHYTFTQHFIPRRKDWIGIFRVGWKTTREYYTFMWVTLPIDLNNKSAKQQEVQFKAYYLPKDDEYYQFCYVDEDGVVRGASIPFQFRPENEEDILVVTTQGEVEEIEQHNKELCKENQELKDSCISLQKQNSDMQAELQKKQEELETLQSINKKLELKVKEQKDYWETELLQLKEQNQKMSSENEKMGIRVDQLQAQLSTQEKEMEKLVQGDQDKTEQLEQLKKENDHLFLSLTEQRKDQKKLEQTVEQMKQNETTAMKKQQELMDENFDLSKRLSENEIICNALQRQKERLEGENDLLKRENSRLLSYMGLDFNSLPYQVPTSDEGGARQNPGLAYGNPYSGIQESSSPSPLSIKKCPICKADDICDHTLEQQQMQPLCFNCPICDKIFPATEKQIFEDHVFCHSL
# partner: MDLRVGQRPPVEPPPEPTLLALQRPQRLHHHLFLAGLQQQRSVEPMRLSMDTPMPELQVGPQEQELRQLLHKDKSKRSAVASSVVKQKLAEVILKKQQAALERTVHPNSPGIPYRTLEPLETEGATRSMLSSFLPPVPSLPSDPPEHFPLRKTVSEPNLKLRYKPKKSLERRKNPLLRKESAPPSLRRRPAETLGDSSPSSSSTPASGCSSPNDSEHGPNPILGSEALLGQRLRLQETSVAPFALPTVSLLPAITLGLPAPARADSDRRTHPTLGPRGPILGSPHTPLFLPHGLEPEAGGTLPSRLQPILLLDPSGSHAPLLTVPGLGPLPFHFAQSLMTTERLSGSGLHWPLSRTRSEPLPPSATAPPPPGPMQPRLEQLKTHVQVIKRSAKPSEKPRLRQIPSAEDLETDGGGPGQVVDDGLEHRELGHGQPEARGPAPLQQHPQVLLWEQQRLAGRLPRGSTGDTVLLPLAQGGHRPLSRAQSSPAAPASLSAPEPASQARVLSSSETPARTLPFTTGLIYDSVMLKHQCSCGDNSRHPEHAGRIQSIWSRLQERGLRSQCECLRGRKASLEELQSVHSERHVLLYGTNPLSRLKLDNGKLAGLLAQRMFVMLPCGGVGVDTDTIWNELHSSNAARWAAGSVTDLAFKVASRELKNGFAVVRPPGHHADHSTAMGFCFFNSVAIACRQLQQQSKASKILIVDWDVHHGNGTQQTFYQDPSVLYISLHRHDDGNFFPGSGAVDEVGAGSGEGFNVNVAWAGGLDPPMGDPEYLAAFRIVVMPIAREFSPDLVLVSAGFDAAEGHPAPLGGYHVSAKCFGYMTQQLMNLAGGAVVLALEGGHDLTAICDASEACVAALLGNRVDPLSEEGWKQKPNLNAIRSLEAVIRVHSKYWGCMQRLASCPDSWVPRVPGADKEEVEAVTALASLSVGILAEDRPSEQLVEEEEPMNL
# B3: Notch homolog 2 N-terminal-like protein A (Homo sapiens), Q7Z3S9 (parent)
# chain: MCVTYHNGTGYCKCPEGFLGEYCQHRDPCEKNRCQNGGTCVAQAMLGKATCRCASGFTGEDCQYSTSHPCFVSRPCLNGGTCHMLSRDTYECTCQVGFTGKECQWTDACLSHPCANGSTCTTVANQFSCKCLTGFTGQKCETDVNECDIPGHCQHGGTCLNLPGSYQCQCLQGFTGQYCDSLYVPCAPSPCVNGGTCRQTGDFTFECNCLPETVRRGTELWERDREVWNGKEHDEN
# partner: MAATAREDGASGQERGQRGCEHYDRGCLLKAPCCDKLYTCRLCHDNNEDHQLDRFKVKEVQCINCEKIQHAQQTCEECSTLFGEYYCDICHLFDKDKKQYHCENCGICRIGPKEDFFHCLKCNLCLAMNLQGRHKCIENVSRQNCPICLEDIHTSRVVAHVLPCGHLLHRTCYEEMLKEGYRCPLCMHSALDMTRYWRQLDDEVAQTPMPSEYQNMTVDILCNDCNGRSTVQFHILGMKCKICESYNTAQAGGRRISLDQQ
# B4: Mothers against decapentaplegic homolog 4 (Homo sapiens), Q13485 (parent)
# chain: MDNMSITNTPTSNDACLSIVHSLMCHRQGGESETFAKRAIESLVKKLKEKKDELDSLITAITTNGAHPSKCVTIQRTLDGRLQVAGRKGFPHVIYARLWRWPDLHKNELKHVKYCQYAFDLKCDSVCVNPYHYERVVSPGIDLSGLTLQSNAPSSMMVKDEYVHDFEGQPSLSTEGHSIQTIQHPPSNRASTETYSTPALLAPSESNATSTANFPNIPVASTSQPASILGGSHSEGLLQIASGPQPGQQQNGFTGQPATYHHNSTTTWTGSRTAPYTPNLPHHQNGHLQHHPPMPPHPGHYWPVHNELAFQPPISNHPAPEYWCSIAYFEMDVQVGETFKVPSSCPIVTVDGYVDPSGGDRFCLGQLSNVHRTEAIERARLHIGKGVQLECKGEGDVWVRCLSDHAVFVQSYYLDREAGRAPGDAVHKIYPSAYIKVFDLRQCHRQMQQQAATAQAAAAAQAAAVAGNIPGPGSVGGIAPAISLSAAAGIGVDDLRRLCILRMSFVKGWGPDYPRQSIKETPCWIEIHLHRALQLLDEVLHTMPIADPQPLD
# partner: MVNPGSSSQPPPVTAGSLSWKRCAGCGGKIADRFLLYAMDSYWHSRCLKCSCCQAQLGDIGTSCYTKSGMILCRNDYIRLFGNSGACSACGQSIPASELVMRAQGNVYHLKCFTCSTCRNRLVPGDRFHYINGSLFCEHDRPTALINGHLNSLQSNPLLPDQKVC
# Variants of: B1
# Settings: with thoc1_human THOC1, Q96FV9
row,Variant,effect of a mutation on the interaction
1,R57K,with no effect

# Variants of: B2
# Settings: with hdac7_human HDAC7, Q8WUI4
row,Variant,effect of a mutation on the interaction
1,T273A,with no effect
2,P389A,with no effect

# Variants of: B3
# Settings: with zn363_human RCHY1, Q96PM5
row,Variant,effect of a mutation on the interaction
1,A115T,with no effect
2,R74Q,with no effect

# Variants of: B4
# Settings: with lmo4_human LMO4, P61968
row,Variant,effect of a mutation on the interaction
1,C324R,disrupting interaction strength
